B1: SEQ-45 (dsDNA)
DNA 1: CCTTGAAGGGATTTCCCTCC
DNA 2: GGAGGGAAATCCCTTCAAGG
modifications: PS (*): C*C*TTGAAGGGATTTCCCT*C*C / 3'-G*G*…*A*A*GGGA*G*G
B2: SEQ-34 (dsDNA)
DNA 1: GAGGGGATTTCCCC
DNA 2: GGGGAAATCCCCTC
modifications: PS (*): G*A*GGGGATTT*C*CCC / antisense 5'-G*GGGAAA*T*C*CCCTC
B3: SEQ-46 (dsDNA)
DNA 1: CCTTGAAGGGACTTTCCTCC
DNA 2: GGAGGAAAGTCCCTTCAAGG
modifications: PS at 2 bonds at each end of both strands
B4: SEQ-33 (dsDNA)
DNA 1: GAGGGGATTTCCCC
DNA 2: GGGGAAATCCCCTC
modifications: PS (*): G*A*GGGGATTT*C*CCC / antisense 5'-GGGGAAA*T*C*CCCTC
B5: SEQ-35 (dsDNA)
DNA 1: GAGGGGATTTCCCC
DNA 2: GGGGAAATCCCCTC
modifications: PS (*): G*A*GGGGATTT*C*CCC / antisense 3'-CTCCC*C*T*AAAG*G*GGG (so in the source)
B6: SEQ-M (dsDNA)
DNA 1: ACCAAGGGATTTCCCTGTCCCAC
DNA 2: GTGGGACAGGGAAATCCCTTGGT
B7: SEQ-14 (dsDNA)
DNA 1: AGGGGATTTCCCC
DNA 2: GGGGAAATCCCCT
B8: SEQ-K (dsDNA)
DNA 1: AGTTGAAGGGATTTCCCTAGGC
DNA 2: GCCTAGGGAAATCCCTTCAACT
B9: SEQ-24 (dsDNA)
DNA 1: TTGAGGGGATTTCCCCC
DNA 2: GGGGGAAATCCCCTCAA
B10: SEQ-21 (dsDNA)
DNA 1: AGGGGATTTCCCCC
DNA 2: GGGGGAAATCCCCT
B11: SEQ-40 (mixed)
DNA: CCTTGAGGGGATTTCCCCCC
mixed: GGGGGGAAATCCCCUCAAGG
modifications: LNA/RNA marked by bold/italic, positions not recoverable from text
B12: SEQ-L (dsDNA)
DNA 1: CCTTGAGGGGACTTTCCCCC
DNA 2: GGGGGAAAGTCCCCTCAAGG
B13: SEQ-47 (dsDNA)
DNA 1: CCTTGAAGGGACTTTCCTCC
DNA 2: GGAGGAAAGTCCCTTCAAGG
modifications: PS (*): C*C*TTGAAGGGACTTTCCT*C*C / 3'-G*G*AAC*T*T*…*G*G
B14: SEQ-19 (dsDNA)
DNA 1: CCTTGAGGGGATTTCCCC
DNA 2: GGGGAAATCCCCTCAAGG
B15: SEQ-38 (dsDNA)
DNA 1: TTGAGGGGATTTCCCC
DNA 2: GGGGAAATCCCCTCAA
modifications: PS (*): TTG*A*GGGGATTT*C*CCC / antisense 5'-GGGGAAA*T*C*CCCTCAA
B16: SEQ-9 (dsDNA)
DNA 1: CCTTGAGGGGATTTCCCCCC
DNA 2: GGGGGGAAATCCCCTCAAGG
modifications: PS (*): C*C*TTG*A*GGGGATTT*C*CCCCC / antisense 5'-G*G*GGGGAAA*T*C*CCCTCAAGG
B17: SEQ-28 (dsDNA)
DNA 1: AGGGGATTTCCCCCC
DNA 2: GGGGGGAAATCCCCT
B18: SEQ-49 (dsDNA)
DNA 1: CCTTGAAGGGACTTTCCTCC
DNA 2: GGAGGAAAGTCCCTTCAAGG
modifications: PS (*): C*C*TTGAAGGGACTTTCCT*C*C / 3'-G*G*…*G*A*AAGGA*G*G
B19: SEQ-31 (dsDNA)
DNA 1: TTGAGGGGATTTCCCCCC
DNA 2: GGGGGGAAATCCCCTCAA
B20: SEQ-29 (dsDNA)
DNA 1: GAGGGGATTTCCCCCC
DNA 2: GGGGGGAAATCCCCTC
B21: SEQ-23 (dsDNA)
DNA 1: TGAGGGGATTTCCCCC
DNA 2: GGGGGAAATCCCCTCA
B22: SEQ-27 (dsDNA)
DNA 1: GGGGATTTCCCCCC
DNA 2: GGGGGGAAATCCCC
B23: SEQ-30 (dsDNA)
DNA 1: TGAGGGGATTTCCCCCC
DNA 2: GGGGGGAAATCCCCTCA
B24: SEQ-18 (dsDNA)
DNA 1: CTTGAGGGGATTTCCCC
DNA 2: GGGGAAATCCCCTCAAG
B25: SEQ-26 (dsDNA)
DNA 1: CCTTGAGGGGATTTCCCCC
DNA 2: GGGGGAAATCCCCTCAAGG
B26: SEQ-32 (dsDNA)
DNA 1: CTTGAGGGGATTTCCCCCC
DNA 2: GGGGGGAAATCCCCTCAAG
B27: SEQ-48 (dsDNA)
DNA 1: CCTTGAAGGGACTTTCCTCC
DNA 2: GGAGGAAAGTCCCTTCAAGG
modifications: PS (*): C*C*TTGAAGGGACTTTCCT*C*C / 3'-G*G*AACTTCC*C*T*GAAAGGA*G*G
B28: SEQ-37 (dsDNA)
DNA 1: TTGAGGGGATTTCCCC
DNA 2: GGGGAAATCCCCTCAA
modifications: PS (*): T*T*G*A*GGGGATTT*C*CCC / antisense 5'-G*G*GGAAA*T*C*CCCTCAA
B29: SEQ-22 (dsDNA)
DNA 1: GAGGGGATTTCCCCC
DNA 2: GGGGGAAATCCCCTC
B30: SEQ-16 (dsDNA)
DNA 1: TGAGGGGATTTCCCC
DNA 2: GGGGAAATCCCCTCA
B31: SEQ-13 (dsDNA)
DNA 1: GGGGATTTCCCC
DNA 2: GGGGAAATCCCC
B32: SEQ-36 (dsDNA)
DNA 1: TTGAGGGGATTTCCCC
DNA 2: GGGGAAATCCCCTCAA
modifications: PS (*): T*TG*A*GGGGATTT*C*CCC / antisense 5'-G*GGGAAA*T*C*CCCTCAA
B33: SEQ-17 (dsDNA)
DNA 1: TTGAGGGGATTTCCCC
DNA 2: GGGGAAATCCCCTCAA
B34: SEQ-15 (dsDNA)
DNA 1: GAGGGGATTTCCCC
DNA 2: GGGGAAATCCCCTC
B35: SEQ-20 (dsDNA)
DNA 1: GGGGATTTCCCCC
DNA 2: GGGGGAAATCCCC
B36: SEQ-25 (dsDNA)
DNA 1: CTTGAGGGGATTTCCCCC
DNA 2: GGGGGAAATCCCCTCAAG
B37: SEQ-44 (dsDNA)
DNA 1: CCTTGAAGGGATTTCCCTCC
DNA 2: GGAGGGAAATCCCTTCAAGG
modifications: PS (*): C*C*TTGAAGGGATTTCCCT*C*C / 3'-G*G*AA*C*T*…*G*G

molecular target: T1, NF-kB p65 (RelA) (UniProt Q04206 Q04206:1-551); test: competition; 0.16 relative to SEQ-X-PS (Table 7); conditions: protein: extract; tags: native, Jurkat nuclear extract (TransAM NF-kB p65 kit, Active Motif)
Description: (§1) Complete Lysis Buffer, Complete Binding Buffer, 1× Wash Buffer and 1× Antibody Binding Buffer are prepared. […] Jurkat nuclear extract was diluted with Complete Lysis Buffer to a concentration of 125 μg protein/mL.
(§2) To each of the wells in a plate included in the kit, on which a NF-κB-binding nucleic acid is preliminarily immobilized, 30 μL each of the NF-κB Decoy Oligonucleotide Dilution prepared in (1) described above is added. To the wells of the blank and control, 30 μL each of Complete Binding Buffer was added. Then 20 μL each of the above-described Jurkat nuclear extract was added to each well. To each of the wells of the blank and control, 20 μL each of Complete Lysis Buffer was added. After shaking the plate at room temperature for 1 hour, each well was washed with 200 μL of 1× Wash Buffer 3 times, and 100 μL each of rabbit anti-NF-κB p65 antibody 1000-fold diluted with 1× Antibody Binding Buffer was added, followed by shaking the plate at room temperature for 1 hour. […] The percentage of the absorbance of each NF-κB decoy oligonucleotide at each of the concentrations was calculated taking the ratio of absorbances of the well of control as 100, and IC₅₀ of each decoy oligonucleotide was calculated from the approximate curve obtained by plotting the mean values of the above-mentioned percent absorbance.

T1 sequence (Q04206 whole entry, one chain of several): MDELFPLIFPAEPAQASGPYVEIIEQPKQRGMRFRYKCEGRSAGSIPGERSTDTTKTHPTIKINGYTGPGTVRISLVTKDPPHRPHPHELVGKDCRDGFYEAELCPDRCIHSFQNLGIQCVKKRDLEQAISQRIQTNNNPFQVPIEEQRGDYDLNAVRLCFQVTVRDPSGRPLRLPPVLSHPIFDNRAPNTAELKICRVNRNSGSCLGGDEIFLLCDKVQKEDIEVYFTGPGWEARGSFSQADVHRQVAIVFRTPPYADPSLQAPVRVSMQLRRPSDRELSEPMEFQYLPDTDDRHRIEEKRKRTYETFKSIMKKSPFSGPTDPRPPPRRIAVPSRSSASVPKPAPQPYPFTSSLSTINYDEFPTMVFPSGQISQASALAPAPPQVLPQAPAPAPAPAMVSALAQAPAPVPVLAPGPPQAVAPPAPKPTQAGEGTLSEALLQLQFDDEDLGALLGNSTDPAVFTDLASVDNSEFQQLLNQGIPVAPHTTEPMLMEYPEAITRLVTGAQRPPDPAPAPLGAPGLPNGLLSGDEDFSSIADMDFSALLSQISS

For B1, the binding signal was 1.43 IC50 ratio to SEQ-x.

molecular target: T1, NF-kB p65 (RelA); test: competition; conditions: protein: extract; tags: native, Jurkat nuclear extract (TransAM NF-kB p65 kit, Active Motif)
Description: as §1
as §2, with “hour. Thereafter, each well was washed with 200 μL of 1× Wash Buffer 3 times, and 100 μL each of HRP-labeled anti-rabbit IgG antibody 1000-fold diluted with 1× Antibody Binding Buffer was added to each well, followed by shaking the plate at room temperature for 1 hour. Thereafter, each well was washed with 200 μL each of 1× Wash Buffer 4 times, and 100 μL each of Developing Solution was added, followed by allowing coloring reaction in a dark room for 5 minutes. After the reaction, the coloring reaction was stopped by adding 100 μL each of Stop Solution.” for “hour.”

Compared with B2, B3 is higher in binding signal: 0.014 IC50 ratio to SEQ-x for the first, > 1.67 IC50 ratio to SEQ-x for the second.

First: B4
Second: B5
The binding signal of the first is higher: 0.021 IC50 ratio to SEQ-x for the first, 0.015 IC50 ratio to SEQ-x for the second.

B6 and B8 cannot be ordered by binding signal: > 1.48 IC50 ratio to SEQ-x for the first, > 1.48 IC50 ratio to SEQ-x for the second.

Compared with B11, B12 is lower in binding signal: > 2.93 IC50 ratio to SEQ-x for the first, 0.66 IC50 ratio to SEQ-x for the second.

First: B13
Second: B15
The binding signal of the first is higher: 0.72 IC50 ratio to SEQ-x for the first, 0.011 IC50 ratio to SEQ-x for the second.

First: B16
Second: B18
The binding signal of the first is lower: 0.02 IC50 ratio to SEQ-x for the first, 0.19 IC50 ratio to SEQ-x for the second.

First: B27
Second: B28
The binding signal of the first is higher: 0.2 IC50 ratio to SEQ-x for the first, 0.015 IC50 ratio to SEQ-x for the second.

In the case of B32, the binding signal is reported as 0.012 IC50 ratio to SEQ-x.

First: B7
Second: B9
The binding signal of the first is higher: 1.39 IC50 ratio to SEQ-I for the first, 0.52 IC50 ratio to SEQ-I for the second.

First: B10
Second: B14
The binding signal of the first is higher: 2.07 IC50 ratio to SEQ-I for the first, 0.26 IC50 ratio to SEQ-I for the second.

First: B17
Second: B19
The binding signal of the first is higher: > 2.2 IC50 ratio to SEQ-I for the first, 0.84 IC50 ratio to SEQ-I for the second.

First: B20
Second: B21
The binding signal of the first is higher: 2.17 IC50 ratio to SEQ-I for the first, 0.69 IC50 ratio to SEQ-I for the second.

Compared with B22, B23 is lower in binding signal: > 2.2 IC50 ratio to SEQ-I for the first, 1.24 IC50 ratio to SEQ-I for the second.

Compared with B24, B25 is higher in binding signal: 0.28 IC50 ratio to SEQ-I for the first, 0.43 IC50 ratio to SEQ-I for the second.

First: B26
Second: B29
The binding signal of the first is lower: 0.76 IC50 ratio to SEQ-I for the first, 1.09 IC50 ratio to SEQ-I for the second.

First: B30
Second: B31
The binding signal of the first is lower: 0.42 IC50 ratio to SEQ-I for the first, > 2.87 IC50 ratio to SEQ-I for the second.

First: B33
Second: B34
The binding signal of the first is lower: 0.3 IC50 ratio to SEQ-I for the first, 0.61 IC50 ratio to SEQ-I for the second.

Compared with B35, B36 is lower in binding signal: > 3.45 IC50 ratio to SEQ-I for the first, 0.41 IC50 ratio to SEQ-I for the second.

molecular target: T1, NF-kB p65 (RelA); test: competition; 0.60 relative to SEQ-X-PS (Table 7); conditions: protein: extract; tags: native, Jurkat nuclear extract (TransAM NF-kB p65 kit, Active Motif)
Description: as §1, §2

For B37, the binding signal was > 1.67 IC50 ratio to SEQ-x.
